Test results published in doi:10.1101/2021.06.14.448427 (bioRxiv, 2021).
Blank lines part the entries; values can stand above or below the binder they belong to.

Tests used:
[1] = biological target: T1, NTF of c-CDCP1 Cut 1 ectodomain (ending after K365) (human, UniProt Q9H5V8 30-365); test: SEC
T1 sequence (looked up): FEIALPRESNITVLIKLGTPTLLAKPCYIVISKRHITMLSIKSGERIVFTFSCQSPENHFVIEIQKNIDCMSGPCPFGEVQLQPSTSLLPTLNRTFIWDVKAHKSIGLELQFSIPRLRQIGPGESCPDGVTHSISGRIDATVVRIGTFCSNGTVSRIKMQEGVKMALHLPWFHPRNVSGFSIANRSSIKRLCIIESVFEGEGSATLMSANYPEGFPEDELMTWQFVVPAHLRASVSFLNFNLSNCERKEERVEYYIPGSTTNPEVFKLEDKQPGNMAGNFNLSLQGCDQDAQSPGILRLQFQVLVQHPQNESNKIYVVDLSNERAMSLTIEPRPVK

[2] = biological target: T2, NTF of c-CDCP1 Cut 2 ectodomain (ending after R368) (human, UniProt Q9H5V8 30-368); test: SEC
T2 sequence (looked up): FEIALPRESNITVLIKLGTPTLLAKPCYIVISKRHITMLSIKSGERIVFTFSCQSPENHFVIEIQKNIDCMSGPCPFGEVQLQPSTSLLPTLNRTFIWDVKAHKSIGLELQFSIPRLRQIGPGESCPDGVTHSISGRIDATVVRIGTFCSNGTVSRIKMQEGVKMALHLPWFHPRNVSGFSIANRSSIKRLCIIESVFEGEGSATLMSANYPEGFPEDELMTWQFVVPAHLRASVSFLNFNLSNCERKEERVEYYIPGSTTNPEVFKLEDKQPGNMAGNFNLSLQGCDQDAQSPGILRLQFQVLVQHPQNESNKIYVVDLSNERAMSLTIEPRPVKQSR

[3] = biological target: T3, NTF of c-CDCP1 Cut 3 ectodomain (ending after K369) (human, UniProt Q9H5V8 30-369); test: co-purification after co-transfection
T3 sequence (looked up): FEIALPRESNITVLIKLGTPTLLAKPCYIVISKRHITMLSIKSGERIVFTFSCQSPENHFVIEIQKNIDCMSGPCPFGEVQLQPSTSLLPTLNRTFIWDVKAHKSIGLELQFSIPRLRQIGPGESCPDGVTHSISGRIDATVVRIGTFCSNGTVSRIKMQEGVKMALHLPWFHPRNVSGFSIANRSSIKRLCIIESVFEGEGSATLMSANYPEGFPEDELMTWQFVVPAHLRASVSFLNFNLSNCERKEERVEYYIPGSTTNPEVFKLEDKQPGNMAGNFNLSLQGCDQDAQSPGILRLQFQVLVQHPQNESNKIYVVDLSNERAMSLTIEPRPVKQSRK

binding result [1]: binds
B1: CTF ectodomain of c-CDCP1 Cut 1 (starting after K365) (domain or fragment, human, UniProt Q9H5V8 366-665, looked up)
chain: QSRKFVPGCFVCLESRTCSSNLTLTSGSKHKISFLCDDLTRLWMNVEKTISCTDHRYCQRKSYSLQVPSDILHLPVELHDFSWKLLVPKDRLSLVLVPAQKLQQHTHEKPCNTSFSYLVASAIPSQDLYFGSFCPGGSIKQIQVKQNISVTLRTFAPSFQQEASRQGLTVSFIPYFKEEGVFTVTPDTKSKVYLRTPNWDRGLPSLTSVSWNISVPRDQVACLTFFKERSGVVCQTGRAFMIIQEQRTRAEEIFSLDEDVLPKPSFHHHSFWVNISNCSPTSGKQLDLLFSVTLTPRTVD

binding result [2]: binds
B2: CTF ectodomain of c-CDCP1 Cut 2 (starting after R368) (domain or fragment, human, UniProt Q9H5V8 369-665, looked up)
chain: KFVPGCFVCLESRTCSSNLTLTSGSKHKISFLCDDLTRLWMNVEKTISCTDHRYCQRKSYSLQVPSDILHLPVELHDFSWKLLVPKDRLSLVLVPAQKLQQHTHEKPCNTSFSYLVASAIPSQDLYFGSFCPGGSIKQIQVKQNISVTLRTFAPSFQQEASRQGLTVSFIPYFKEEGVFTVTPDTKSKVYLRTPNWDRGLPSLTSVSWNISVPRDQVACLTFFKERSGVVCQTGRAFMIIQEQRTRAEEIFSLDEDVLPKPSFHHHSFWVNISNCSPTSGKQLDLLFSVTLTPRTVD

binding result [3]: binds
B3: CTF ectodomain of c-CDCP1 Cut 3 (starting after K369) (domain or fragment, human, UniProt Q9H5V8 370-665, looked up)
chain: FVPGCFVCLESRTCSSNLTLTSGSKHKISFLCDDLTRLWMNVEKTISCTDHRYCQRKSYSLQVPSDILHLPVELHDFSWKLLVPKDRLSLVLVPAQKLQQHTHEKPCNTSFSYLVASAIPSQDLYFGSFCPGGSIKQIQVKQNISVTLRTFAPSFQQEASRQGLTVSFIPYFKEEGVFTVTPDTKSKVYLRTPNWDRGLPSLTSVSWNISVPRDQVACLTFFKERSGVVCQTGRAFMIIQEQRTRAEEIFSLDEDVLPKPSFHHHSFWVNISNCSPTSGKQLDLLFSVTLTPRTVD
